Assay results reported in US20110300138A1 (published 2011).

What was measured:
Experiment in all cases: cell-based or functional assay
[1] = target: human TSHR (thyroid stimulating hormone receptor) expressed in transfected CHO cells (human) (UniProt P16473)
[2] = target: human TSH receptor (full length, wild type) expressed in CHO cells (human) (UniProt P16473)
[3] = target: human TSHR expressed in CHO cells (human) (UniProt P16473)
[4] = target: human TSH receptor (TSHR), wild type, expressed in CHO cells (human) (UniProt P16473)
[5] = target: human TSHR (wild type, full length) expressed in CHO cells (human) (UniProt P16473)
[6] = target: human TSH receptor (wild type), expressed on transfected CHO cells (human) (UniProt P16473)

9D33 IgG (antibody)
% Inhibition; 3 ng/mL M22 IgG + 0.001 µg/mL 9D33 IgG [1]: 9%
% Inhibition; 3 ng/mL M22 IgG + 0.01 µg/mL 9D33 IgG [1]: 2%
% Inhibition; 3 ng/mL M22 IgG + 0.1 µg/mL 9D33 IgG [1]: 66%
% Inhibition; 3 ng/mL M22 IgG + 1 µg/mL 9D33 IgG [1]: 93%
% Inhibition; 3 ng/mL M22 IgG + 10 µg/mL 9D33 IgG [1]: 94%
% Inhibition; 3 ng/mL M22 IgG + 100 µg/mL 9D33 IgG [1]: 95%
Cyclic AMP concentration; 3 ng/mL M22 IgG + 0.001 µg/mL 9D33 IgG [1]: 19.4 pmol/mL
Cyclic AMP concentration; 3 ng/mL M22 IgG + 0.01 µg/mL 9D33 IgG [1]: 21 pmol/mL
Cyclic AMP concentration; 3 ng/mL M22 IgG + 0.1 µg/mL 9D33 IgG [1]: 7.19 pmol/mL
Cyclic AMP concentration; 3 ng/mL M22 IgG + 1 µg/mL 9D33 IgG [1]: 1.48 pmol/mL
Cyclic AMP concentration; 3 ng/mL M22 IgG + 10 µg/mL 9D33 IgG [1]: 1.2 pmol/mL
Cyclic AMP concentration; 3 ng/mL M22 IgG + 100 µg/mL 9D33 IgG [1]: 1.01 pmol/mL
Cyclic AMP concentration; 100 µg/mL 9D33 IgG [1]: 1.31 pmol/mL
% Inhibition; T4 serum + 100 µg/mL 9D33 [2]: 94.8%
% Inhibition; T5 serum + 100 µg/mL 9D33 [2]: 95.6%
% Inhibition; T6 serum + 100 µg/mL 9D33 [2]: 94%
Cyclic AMP concentration; 100 µg/mL 9D33 alone [2]: 2 pmol/mL
Cyclic AMP concentration; HBD + 100 µg/mL 9D33 [2]: 3.9 pmol/mL
Cyclic AMP concentration; T4 serum + 100 µg/mL 9D33 [2]: 4.1 pmol/mL
Cyclic AMP concentration; T5 serum + 100 µg/mL 9D33 [2]: 2.9 pmol/mL
Cyclic AMP concentration; T6 serum + 100 µg/mL 9D33 [2]: 5 pmol/mL
% Inhibition; 3 ng/mL pTSH + 0.001 µg/mL 9D33 IgG [3]: 13%
% Inhibition; 3 ng/mL pTSH + 0.01 µg/mL 9D33 IgG [3]: 5%
% Inhibition; 3 ng/mL pTSH + 0.1 µg/mL 9D33 IgG [3]: 28%
% Inhibition; 3 ng/mL pTSH + 1 µg/mL 9D33 IgG [3]: 67%
% Inhibition; 3 ng/mL pTSH + 10 µg/mL 9D33 IgG [3]: 87%
% Inhibition; 3 ng/mL pTSH + 100 µg/mL 9D33 IgG [3]: 95%
% Inhibition of constitutive activity; 0.001 µg/mL 9D33 IgG [4]: 0%
% Inhibition of constitutive activity; 0.01 µg/mL 9D33 IgG [4]: 0%
% Inhibition of constitutive activity; 0.1 µg/mL 9D33 IgG [4]: 0%
% Inhibition of constitutive activity; 0.3 µg/mL 9D33 IgG [4]: 0%
% Inhibition of constitutive activity; 1 µg/mL 9D33 IgG [4]: 0%
% Inhibition of constitutive activity; 3 µg/mL 9D33 IgG [4]: 0%
% Inhibition of constitutive activity; 10 µg/mL 9D33 IgG [4]: 0%
% Inhibition of constitutive activity; 100 µg/mL 9D33 IgG [4]: 0%
Cyclic AMP concentration (constitutive activity); 0.001 µg/mL 9D33 IgG [4]: 18.8 pmol/mL
Cyclic AMP concentration (constitutive activity); 0.01 µg/mL 9D33 IgG [4]: 20.3 pmol/mL
Cyclic AMP concentration (constitutive activity); 0.1 µg/mL 9D33 IgG [4]: 23.9 pmol/mL
Cyclic AMP concentration (constitutive activity); 0.3 µg/mL 9D33 IgG [4]: 26.4 pmol/mL
Cyclic AMP concentration (constitutive activity); 1 µg/mL 9D33 IgG [4]: 35.5 pmol/mL
Cyclic AMP concentration (constitutive activity); 3 µg/mL 9D33 IgG [4]: 32.3 pmol/mL
Cyclic AMP concentration (constitutive activity); 10 µg/mL 9D33 IgG [4]: 34.3 pmol/mL
Cyclic AMP concentration (constitutive activity); 100 µg/mL 9D33 IgG [4]: 38 pmol/mL
% Inhibition of T5 serum stimulation; 0.01 µg/mL 9D33 IgG [5]: 23%
% Inhibition of T5 serum stimulation; 0.1 µg/mL 9D33 IgG [5]: 55.7%
% Inhibition of T5 serum stimulation; 1 µg/mL 9D33 IgG [5]: 93.6%
% Inhibition of T5 serum stimulation; 10 µg/mL 9D33 IgG [5]: 96.4%
% Inhibition of T5 serum stimulation; 100 µg/mL 9D33 IgG [5]: 95.3%
Cyclic AMP concentration; 0.01 µg/mL 9D33 IgG + T5 [5]: 49.2 pmol/mL
Cyclic AMP concentration; 0.1 µg/mL 9D33 IgG + T5 [5]: 28.3 pmol/mL
Cyclic AMP concentration; 1 µg/mL 9D33 IgG + T5 [5]: 4.1 pmol/mL
Cyclic AMP concentration; 10 µg/mL 9D33 IgG + T5 [5]: 2.3 pmol/mL
Cyclic AMP concentration; 100 µg/mL 9D33 IgG + T5 [5]: 3 pmol/mL
Cyclic AMP concentration; 100 µg/mL 9D33 IgG alone [5]: 2.4 pmol/mL
% Inhibition; 9D33 IgG 0.01 µg/mL + T11 [6]: 17.1%
% Inhibition; 9D33 IgG 0.1 µg/mL + T11 [6]: 50.4%
% Inhibition; 9D33 IgG 1 µg/mL + T11 [6]: 87.7%
% Inhibition; 9D33 IgG 10 µg/mL + T11 [6]: 90.1%
% Inhibition; 9D33 IgG 100 µg/mL + T11 [6]: 94.8%
Cyclic AMP concentration; 9D33 IgG 0.01 µg/mL + T11 [6]: 20.9 pmol/mL
Cyclic AMP concentration; 9D33 IgG 0.1 µg/mL + T11 [6]: 12.5 pmol/mL
Cyclic AMP concentration; 9D33 IgG 1 µg/mL + T11 [6]: 3.1 pmol/mL
Cyclic AMP concentration; 9D33 IgG 10 µg/mL + T11 [6]: 2.5 pmol/mL
Cyclic AMP concentration; 9D33 IgG 100 µg/mL + T11 [6]: 2.1 pmol/mL
Cyclic AMP concentration; 9D33 IgG 100 µg/mL alone [6]: 1.3 pmol/mL
